The target of test [1] is T1, rat neuropeptide FF receptor (NPFF1) (rat, UniProt Q9EP86 1-432). The test is described as follows: competition with [125I]D-Tyr-NPFF, membranes of COS-7 cells with rat NPFF1. The source says:
(§1) Cos-7 cells transiently expressing the gene encoding the novel rat NPFF1 receptor were used for pharmacological evaluation.

Test [2] deals with rat spinal cord membrane receptor. The test is described as follows: competition with [125I]D-Tyr-NPFF, rat spinal cord membranes.
Test [3] deals with rat neuropeptide FF receptor (NPFF1) (rat) (UniProt Q9EP86). The test is described as follows: competition with [125I]D-Tyr-NPFF, membranes of COS-7 cells with rat NPFF1.
The target of test [4] is T2, rat neuropeptide FF receptor (NPFF2) (rat, UniProt Q9EQD2 1-417).
T2 construct: Full-length cloned receptor; Also the native receptor in rat brain sections (autoradiography); also called rat NPFF2
The test is described as follows: competition with [125I]D-Tyr-NPFF, cloned receptor (head: HEK-293; text: Cos-7). The source says:
(§2) Additional pharmacological evaluation was done using 293 human embryonic kidney cells (HEK-293 cells) transiently expressing the genes encoding the human NPFF1, NPFF2, and rat NPFF1 receptors, as well as Cos-7 cells expressing the rat NPFF2 receptors.

The target of test [5] is T3, human neuropeptide FF receptor (NPFF1) (human, UniProt Q9GZQ6 1-430).
T3 construct: also called human NPFF1; hNPFF1
Briefly: competition with [125I]D-Tyr-NPFF, HEK-293 cells with the cloned receptor.
From the text: as §2

Test [6] concerns the target T1, rat neuropeptide FF receptor (NPFF1). The test is described as above.
From the text: as §2

For test [7], the target named is T4, human NPFF2b (hNPFF2) receptor (human, UniProt Q9Y5X5 103-522).
T4 construct: also called NPFF-like; hNPFF-like
The test is described as above.
From the text: as §2

In test [8] the target is T1, rat neuropeptide FF receptor (NPFF1). Briefly: cell-based or functional assay.
Test [9] has as its target T5, rat neuropeptide FF receptor (NPFF1) (rat), Q9EP86.
T5 chain: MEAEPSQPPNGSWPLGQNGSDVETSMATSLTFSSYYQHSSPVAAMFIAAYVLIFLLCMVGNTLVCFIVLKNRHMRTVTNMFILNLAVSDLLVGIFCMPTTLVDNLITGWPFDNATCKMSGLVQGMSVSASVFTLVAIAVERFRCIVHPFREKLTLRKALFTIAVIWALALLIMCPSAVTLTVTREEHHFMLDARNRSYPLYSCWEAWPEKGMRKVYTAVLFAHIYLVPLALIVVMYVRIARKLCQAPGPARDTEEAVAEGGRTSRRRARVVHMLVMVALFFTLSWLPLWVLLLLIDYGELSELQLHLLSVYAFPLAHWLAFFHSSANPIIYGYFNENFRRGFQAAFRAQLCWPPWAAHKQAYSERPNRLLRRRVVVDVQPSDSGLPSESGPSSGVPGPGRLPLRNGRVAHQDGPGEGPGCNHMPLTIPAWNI
The test is described as follows: competition with [125I]D-Tyr-NPFF, membranes of COS-7 cells with rat NPFF1.

The target in test [10] is T1, rat neuropeptide FF receptor (NPFF1). Briefly: radioligand saturation binding, membranes of Cos-7 cells transiently expressing rat NPFF1.
From the text: as §1

Test [11] addresses T3, human neuropeptide FF receptor (NPFF1). Briefly: radioligand saturation binding, transiently transfected HEK-293 cells.
The target in test [12] is T1, rat neuropeptide FF receptor (NPFF1). The test is described as above.
The target of test [13] is T4, human NPFF2b (hNPFF2) receptor. The description is as above.
Test [14] addresses T2, rat neuropeptide FF receptor (NPFF2). Briefly: radioligand binding to cloned rat NPFF2, as told in the discussion.
The target is the same in test [15]. The test is described as follows: radioligand saturation binding, Cos-7 cells expressing rat NPFF2.
From the text: as §2

For test [16], the target named is T1, rat neuropeptide FF receptor (NPFF1). Briefly: cell-based or functional assay. This is another data set of the same source.
The target of test [17] is T2, rat neuropeptide FF receptor (NPFF2). Briefly: competition binding, HEK-293 cells with the cloned receptor.
For test [18], the target named is T3, human neuropeptide FF receptor (NPFF1). The test is described as follows: cell-based or functional assay.
Test [19] concerns the target T4, human NPFF2b (hNPFF2) receptor. The test is described as follows: cell-based or functional assay.

Non-standard residues stand in square brackets, D forms with d. No end group written: not given here. *: point of attachment. NMeF = CN[C@@H](Cc1ccccc1)C(=O)O; 125I = [125I]*

T4 sequence (Q9Y5X5 103-522): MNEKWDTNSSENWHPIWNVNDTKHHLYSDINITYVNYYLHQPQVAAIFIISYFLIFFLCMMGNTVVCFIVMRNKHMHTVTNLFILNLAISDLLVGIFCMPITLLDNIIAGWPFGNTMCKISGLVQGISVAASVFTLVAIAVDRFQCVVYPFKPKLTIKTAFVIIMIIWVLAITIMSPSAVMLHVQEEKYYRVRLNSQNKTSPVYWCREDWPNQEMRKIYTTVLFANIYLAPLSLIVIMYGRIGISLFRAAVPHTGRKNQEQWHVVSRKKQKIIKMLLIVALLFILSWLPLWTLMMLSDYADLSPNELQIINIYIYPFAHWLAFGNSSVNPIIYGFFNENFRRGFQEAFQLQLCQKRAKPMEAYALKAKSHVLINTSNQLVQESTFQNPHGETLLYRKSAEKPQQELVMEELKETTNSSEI
T3 sequence (Q9GZQ6 whole entry): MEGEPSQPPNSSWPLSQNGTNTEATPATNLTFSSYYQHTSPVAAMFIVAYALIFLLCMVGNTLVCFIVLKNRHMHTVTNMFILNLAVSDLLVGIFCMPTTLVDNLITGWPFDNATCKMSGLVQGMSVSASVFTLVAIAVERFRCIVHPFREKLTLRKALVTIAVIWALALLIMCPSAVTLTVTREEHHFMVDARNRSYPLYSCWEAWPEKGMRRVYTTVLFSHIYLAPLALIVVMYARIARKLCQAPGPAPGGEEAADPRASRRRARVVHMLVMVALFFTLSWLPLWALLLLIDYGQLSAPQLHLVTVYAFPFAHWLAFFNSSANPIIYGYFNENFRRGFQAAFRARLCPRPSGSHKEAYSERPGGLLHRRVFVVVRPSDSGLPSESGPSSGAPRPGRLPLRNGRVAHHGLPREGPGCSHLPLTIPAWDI
T2 sequence (Q9EQD2 whole entry): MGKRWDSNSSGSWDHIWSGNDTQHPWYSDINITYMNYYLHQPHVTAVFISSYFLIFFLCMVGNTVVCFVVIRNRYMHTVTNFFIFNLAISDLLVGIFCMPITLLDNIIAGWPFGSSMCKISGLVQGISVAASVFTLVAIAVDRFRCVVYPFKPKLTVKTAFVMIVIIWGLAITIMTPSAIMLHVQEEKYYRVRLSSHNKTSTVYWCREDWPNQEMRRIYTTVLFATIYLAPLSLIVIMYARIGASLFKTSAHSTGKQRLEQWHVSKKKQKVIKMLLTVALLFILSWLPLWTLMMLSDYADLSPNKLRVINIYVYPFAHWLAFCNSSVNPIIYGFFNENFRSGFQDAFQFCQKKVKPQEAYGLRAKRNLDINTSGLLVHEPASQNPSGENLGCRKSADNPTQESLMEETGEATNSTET

Regarding CGRP (peptide), the pKi in test [1] and in test [2] was 5 in each case.

For the molecule (2DME)Y8Fa (peptide), the negative logarithm of the Ki (pKi) amounted to 9.57 in test [2] and 9.2 in test [3].

Neuropeptide FF (NPFF) yielded a negative-log Ki (pKi) in test [2] of 9.05.

With Neuropeptide F, the results for the pKi in test [1] and in [2] were 6.11 and 8.1, respectively.

Turning to (3D)Y8Fa (peptide), the pKi in [2] came to 9.12; in [3], 8.62.

For the molecule (2D)Y8Fa (peptide), the pKi in test [2] is 9.21; in test [3] it was 8.33.

desamino-nor-Y8Ra (peptide): the values for the pKi in [1] and in [2] were 7.27 and 7.51, respectively.

In test [2], “Dynorphin A1-13 (from UniProt P01213 207-219) (peptide)” displayed a pKi of 5.7.

For YLFQPQRF-NH2 (also called Y8Famide; Y-8-F-amide) [Y8Fa], the negative logarithm of the Ki (pKi) in test [1] amounted to 8.38; in [2] it was 9.19.

With FMRF (D-Met in place of L-Met, C-terminal amide, also called the D-Met analog) [D-Met-FMRF amide], the pKi in [4] turned out to be 6.2; in test [5] it was 6.6; in test [6] it was 6.2; in [7], 6.4.

B1: (D-Tyr^1-(NMe)Phe^3)NPFF (peptide)
peptide: [dY]L[NMeF]QPQRF-NH2
modifications: N-terminus assumed
SMILES: CC(C)C[C@H](NC(=O)[C@H](N)Cc1ccc(O)cc1)C(=O)N(C)[C@@H](Cc1ccccc1)C(=O)N[C@@H](CCC(N)=O)C(=O)N1CCC[C@H]1C(=O)N[C@@H](CCC(N)=O)C(=O)N[C@@H](CCCNC(=N)N)C(=O)N[C@@H](Cc1ccccc1)C(N)=O
notes: also called D-Tyr-NPFF; (1DMe)Y8Fa
As for B1, the pKi in [1] is 8.55; in [2], 9.72; in [4], 8.7; in test [5], 8.1; in test [6], 8.8; in [7], 8.5.

Take DYMGWMDF (peptide, UniProt P06307 96-103, looked up, species assumed, ends and bridges not checked) [CCK8]: the pKi in test [1] and in [2] was 5 throughout.

As to GWTLNSAGYLLGPHAVGNHRSFSDKNGLTS (peptide, UniProt P22466 33-62, looked up, species assumed, Galanin) [galanin], the negative-log Ki (pKi) in test [1] and in test [2] was 5 throughout.

As to MPRVRSLFQEQEEPEPGMEEAGEMEQKQLQ (peptide, UniProt Q13519 98-127, looked up, species assumed, Nocistatin) [nocistatin], the pKi in [1] and in test [2] was 5 each time.

Take AGEGLSSPFWSLAAPQRF-NH2 (also called NPAF) [rat A-18-F-amide]: the pKi in test [1] was determined as 7.5; in test [2], 9; in test [4], 8.2; in test [5], 7.2; in [6] it was 7.5; in test [7], 8.9. Further, the “EC50, extracellular acidification rate (microphysiometry), CHO cells with NPFF1 alone” value in [8] amounted to 150000 pM.

B2: [Y^9]A18Fa (peptide)
peptide: AGEGLSSPYWSLAAPQRF-NH2
notes: also called [Y^9]A18Famide; [tyr^9]A-18-F-amide
On to B2, for which the pKi was determined as 7.56 in test [1] and 8.5 in test [2].

In the case of YPLG (modifications not checked) [Tyr-MIF-1], the pKi in [9] and in [2] was 5 each time.

Turning to APLEPVYPGDNATPEQMAQYAADLRRYINMLTRPRY (peptide, UniProt P01298 30-65, looked up) [hPP], the pKi in test [1] and in [2] was 5 each time.

Regarding [dY](125I)L[NMeF]QPQRF-NH2 [[^125I][D-Tyr^1-(NMe)Phe^3]NPFF], the dissociation constant Kd is 335 pM in test [10]; 460 pM in [11]; 650 pM in [12]; 170 pM in test [13]; 220 pM in [14]; 170 pM in test [15].

B3: Neuropeptide FF (NPFF) (peptide)
peptide: FLFQPQRF-NH2
notes: bought from Bachem; also called F-8-Fa; F8Famide
As to B3, the “EC50, functional activity in COS-7 cells” value in [16] turned out to be 9300 pM. In addition, in test [8], the “EC50, extracellular acidification rate (microphysiometry), CHO cells with NPFF1 alone” value was found to be 19300 pM; the “EC50, extracellular acidification rate (microphysiometry), CHO cells with NPFF1 and the Gz/Gq chimera” value is 27700 pM; the “EC50, total inositol phosphate release, Cos-7 cells with NPFF1” value was found to be 23000 pM. The same molecule registered a pKi in [17] of 8.2.

B4: Met5-Arg6-Phe7-Enk-NH2 (peptide)
peptide: YGGFMRF-NH2
notes: also called Met-Enk-NH2; Met^5, Arg^6, Phe^7-NH2 enkephalinamide
On to B4, for which the pKi turned out to be 7.35 in test [1] and 8.4 in test [2].

Regarding YGGFMRF-OH [Met5-Arg6-Phe7-Enk-OH], the pKi in test [1] and in test [2] was 5 in each case.

B5: AF-1 (peptide)
peptide: H-KNQFIRF-NH2
notes: Printed as H2N-Lys-Asn-Gln-Phe-Ile-Arg-Phe-NH2; also called FMRF-like peptide
Take B5: the pKi was 6.63 in test [1] and 7.56 in test [2].

Turning to PDVDHVFLRF-NH2 (also called SchistFLRF) [Schisto(FLRFNH2)], the pKi in [1] worked out at 5.96; in test [2] it was 6.39.

B6: AF-2 (peptide)
peptide: H-KHQYLRF-NH2
notes: Printed as H-Lys-His-Gln-Tyr-Leu-Arg-Phe-NH2
B6: the figures for the pKi in test [1] and in test [2] were 7.02 and 7.96, respectively.

With FMRF-NH2 [FMRF amide], the pKi came to 8.48 in test [1]; 8.49 in test [2]; 8 in test [4]; 9.1 in test [5]; 8.7 in test [6]; 8.4 in [7].

FFRF (ends and bridges not checked): the pKi in [1] turned out to be 8; in test [2], 8.98.

B7: PQRF-amide (peptide)
peptide: PQRF-NH2
notes: C-terminal tetrapeptide of NPFF; also called PGRF-amide [sic]
For the molecule B7, the “% of NPPF Response, intracellular calcium mobilization” value was 93 % of NPPF Response in test [18] and 94 % of NPPF Response in [19]. Besides, the “pEC50, intracellular calcium mobilization” value in [18] turned out to be 6.7; in [19], 7. Moreover, the pKi in test [1] came to 8.18; in test [4], 7.6; in test [5] it was 7.4; in [6], 7.6; in test [7], 7.6.

On to FTRF (ends and bridges not checked), for which the pKi in test [1] is 7.87; in [2], 8.16.

As to PMRF-NH2 [PMRFa], the pKi turned out to be 8.55 in [1] and 9.37 in test [2].

Source of the values: patent US20050089937A1 (H LUNDBECK A S, published 2005).
